From paper PMC4039082 (Science (New York, N.Y.), 2013)

T1: Tfa1 subunit of TFIIE (S. cerevisiae, UniProt P36100 1-482)
T1 sequence (looked up): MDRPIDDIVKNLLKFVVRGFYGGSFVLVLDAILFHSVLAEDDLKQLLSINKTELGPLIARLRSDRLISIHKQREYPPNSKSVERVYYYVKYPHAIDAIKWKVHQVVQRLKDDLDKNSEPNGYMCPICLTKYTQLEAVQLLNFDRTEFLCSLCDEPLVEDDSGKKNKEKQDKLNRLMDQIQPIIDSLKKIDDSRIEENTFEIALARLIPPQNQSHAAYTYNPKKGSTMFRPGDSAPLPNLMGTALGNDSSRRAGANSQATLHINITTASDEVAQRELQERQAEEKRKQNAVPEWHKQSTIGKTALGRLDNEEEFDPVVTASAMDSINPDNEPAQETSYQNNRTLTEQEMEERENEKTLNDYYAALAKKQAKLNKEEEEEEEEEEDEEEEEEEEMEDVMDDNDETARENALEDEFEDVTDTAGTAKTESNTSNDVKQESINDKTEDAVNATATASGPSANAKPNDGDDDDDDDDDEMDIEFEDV

B1: Tfa2 subunit of TFIIE (natural protein, S. cerevisiae, UniProt P36145 1-328, looked up)
chain: MSKNRDPLLANLNAFKSKVKSAPVIAPAKVGQKKTNDTVITIDGNTRKRTASERAQENTLNSAKNPVLVDIKKEAGSNSSNAISLDDDDDDEDFGSSPSKKVRPGSIAAAALQANQTDISKSHDSSKLLWATEYIQKKGKPVLVNELLDYLSMKKDDKVIELLKKLDRIEFDPKKGTFKYLSTYDVHSPSELLKLLRSQVTFKGISCKDLKDGWPQCDETINQLEEDSKILVLRTKKDKTPRYVWYNSGGNLKCIDEEFVKMWENVQLPQFAELPRKLQDLGLKPASVDPATIKRQTKRVEVKKKRQRKGKITNTHMTGILKDYSHRV
B2: Ssl1 subunit of core TFIIH (natural protein, S. cerevisiae, UniProt Q04673 1-461, looked up)
chain: MAPVVISESEEDEDRVAITRRTKRQVHFDGEGDDRVDQQQQQHSSSHRDRDKHVQRKKKKRLSNRNLQGSNGGYAWEDEIKRSWDLVKVDDEGDMASLVASIVEARKKRTAKKNITPYQRGIIRSLILTLDCSEAMLEKDLRPNRHAMIIQYAIDFVHEFFDQNPISQMGIIIMRNGLAQLVSQVSGNPQDHIDALKSIRKQEPKGNPSLQNALEMARGLLLPVPAHCTREVLIVFGSLSTTDPGDIHQTIDSLVSEKIRVKVLGLSAQVAICKELCKATNYGDESFYKILLDETHLKELFNEAVTPLPVNKINKGFTLVKMGFPTRIFEDTPTFCSCHSKLVYGGYFCPNCHSKVCSLPTVCPCCDLMLILSTHLARSYHHLMPLKTFAEVPTTEKFRSEDCFSCQSRFPILKNHKNGKLLTSSRYRCEDCKQEFCVDCDVFIHEILHNCPGCESKPVIT
B3: TFIIB (natural protein, S. cerevisiae, UniProt P29055 1-345, looked up)
chain: MMTRESIDKRAGRRGPNLNIVLTCPECKVYPPKIVERFSEGDVVCALCGLVLSDKLVDTRSEWRTFSNDDHNGDDPSRVGEASNPLLDGNNLSTRIGKGETTDMRFTKELNKAQGKNVMDKKDNEVQAAFAKITMLCDAAELPKIVKDCAKEAYKLCHDEKTLKGKSMESIMAASILIGCRRAEVARTFKEIQSLIHVKTKEFGKTLNIMKNILRGKSEDGFLKIDTDNMSGAQNLTYIPRFCSHLGLPMQVTTSAEYTAKKCKEIKEIAGKSPITIAVVSIYLNILLFQIPITAAKVGQTLQVTEGTIKSGYKILYEHRDKLVDPQLIANGVVSLDNLPGVEKK
B4: Ssl2 helicase subunit of TFIIH (natural protein, S. cerevisiae, UniProt Q00578 1-843, looked up)
chain: MTDVEGYQPKSKGKIFPDMGESFFSSDEDSPATDAEIDENYDDNRETSEGRGERDTGAMVTGLKKPRKKTKSSRHTAADSSMNQMDAKDKALLQDTNSDIPADFVPDSVSGMFRSHDFSYLRLRPDHASRPLWISPSDGRIILESFSPLAEQAQDFLVTIAEPISRPSHIHEYKITAYSLYAAVSVGLETDDIISVLDRLSKVPVAESIINFIKGATISYGKVKLVIKHNRYFVETTQADILQMLLNDSVIGPLRIDSDHQVQPPEDVLQQQLQQTAGKPATNVNPNDVEAVFSAVIGGDNEREEEDDDIDAVHSFEIANESVEVVKKRCQEIDYPVLEEYDFRNDHRNPDLDIDLKPSTQIRPYQEKSLSKMFGNGRARSGIIVLPCGAGKTLVGITAACTIKKSVIVLCTSSVSVMQWRQQFLQWCTLQPENCAVFTSDNKEMFQTESGLVVSTYSMVANTRNRSHDSQKVMDFLTGREWGFIILDEVHVVPAAMFRRVVSTIAAHAKLGLTATLVREDDKIGDLNFLIGPKLYEANWMELSQKGHIANVQCAEVWCPMTAEFYQEYLRETARKRMLLYIMNPTKFQACQFLIQYHERRGDKIIVFSDNVYALQEYALKMGKPFIYGSTPQQERMNILQNFQYNDQINTIFLSKVGDTSIDLPEATCLIQISSHYGSRRQEAQRLGRILRAKRRNDEGFNAFFYSLVSKDTQEMYYSTKRQAFLVDQGYAFKVITHLHGMENIPNLAYASPRERRELLQEVLLKNEEAAGIEVGDDADNSVGRGSNGHKRFKSKAVRGEGSLSGLAGGEDMAYMEYSTNKNKELKEHHPLIRKMYYKNLKK
B5: Tfg2 subunit of TFIIF (natural protein, S. cerevisiae, UniProt P41896 1-400, looked up)
chain: MSSGSAGAPALSNNSTNSVAKEKSGNISGDEYLSQEEEVFDGNDIENNETKVYEESLDLDLERSNRQVWLVRLPMFLAEKWRDRNNLHGQELGKIRINKDGSKITLLLNENDNDSIPHEYDLELTKKVVENEYVFTEQNLKKYQQRKKELEADPEKQRQAYLKKQEREEELKKKQQQQKRRNNRKKFNHRVMTDRDGRDRYIPYVKTIPKKTAIVGTVCHECQVMPSMNDPNYHKIVEQRRNIVKLNNKERITTLDETVGVTMSHTGMSMRSDNSNFLKVGREKAKSNIKSIRMPKKEILDYLFKLFDEYDYWSLKGLKERTRQPEAHLKECLDKVATLVKKGPYAFKYTLRPEYKKLKEEERKATLGELADEQTGSAGDNAQGDAEADLEDEIEMEDVV
B6: Toa2 subunit of TFIIA (natural protein, S. cerevisiae, UniProt P32774 1-122, looked up)
chain: MAVPGYYELYRRSTIGNSLVDALDTLISDGRIEASLAMRVLETFDKVVAETLKDNTQSKLTVKGNLDTYGFCDDVWTFIVKNCQVTVEDSHRDASQNGSGDSQSVISVDKLRIVACNSKKSE
B7: Tfg1 subunit of TFIIF (natural protein, S. cerevisiae, UniProt P41895 1-735, looked up)
chain: MSRRNPPGSRNGGGPTNASPFIKRDRMRRNFLRMRMGQNGSNSSSPGVPNGDNSRGSLVKKDDPEYAEEREKMLLQIGVEADAGRSNVKVKDEDPNEYNEFPLRAIPKEDLENMRTHLLKFQSKKKINPVTDFHLPVRLHRKDTRNLQFQLTRAEIVQRQKEISEYKKKAEQERSTPNSGGMNKSGTVSLNNTVKDGSQTPTVDSVTKDNTANGVNSSIPTVTGSSVPPASPTTVSAVESNGLSNGSTSAANGLDGNASTANLANGRPLVTKLEDAGPAEDPTKVGMVKYDGKEVTNEPEFEEGTMDPLADVAPDGGGRAKRGNLRRKTRQLKVLDENAKKLRFEEFYPWVMEDFDGYNTWVGSYEAGNSDSYVLLSVEDDGSFTMIPADKVYKFTARNKYATLTIDEAEKRMDKKSGEVPRWLMKHLDNIGTTTTRYDRTRRKLKAVADQQAMDEDDRDDNSEVELDYDEEFADDEEAPIIDGNEQENKESEQRIKKEMLQANAMGLRDEEAPSENEEDELFGEKKIDEDGERIKKALQKTELAALYSSDENEINPYLSESDIENKENESPVKKEEDSDTLSKSKRSSPKKQQKKATNAHVHKEPTLRVKSIKNCVIILKGDKKILKSFPEGEWNPQTTKAVDSSNNASNTVPSPIKQEEGLNSTVAEREETPAPTITEKDIIEAIGDGKVNIKEFGKFIRRKYPGAENKKLMFAIVKKLCRKVGNDHMELKKE

Legend:
Experiment in all cases: cross-linking
Tfa1 subunit of TFIIE = molecular target: T1, Tfa1 subunit of TFIIE
Tfg2 subunit of TFIIF = molecular target: B5
[1] = molecular target: Rpb1 subunit of RNA polymerase II (S. cerevisiae, UniProt P04050 1-1733)
Rpb1 subunit of RNA polymerase II, sequence (P04050 whole entry): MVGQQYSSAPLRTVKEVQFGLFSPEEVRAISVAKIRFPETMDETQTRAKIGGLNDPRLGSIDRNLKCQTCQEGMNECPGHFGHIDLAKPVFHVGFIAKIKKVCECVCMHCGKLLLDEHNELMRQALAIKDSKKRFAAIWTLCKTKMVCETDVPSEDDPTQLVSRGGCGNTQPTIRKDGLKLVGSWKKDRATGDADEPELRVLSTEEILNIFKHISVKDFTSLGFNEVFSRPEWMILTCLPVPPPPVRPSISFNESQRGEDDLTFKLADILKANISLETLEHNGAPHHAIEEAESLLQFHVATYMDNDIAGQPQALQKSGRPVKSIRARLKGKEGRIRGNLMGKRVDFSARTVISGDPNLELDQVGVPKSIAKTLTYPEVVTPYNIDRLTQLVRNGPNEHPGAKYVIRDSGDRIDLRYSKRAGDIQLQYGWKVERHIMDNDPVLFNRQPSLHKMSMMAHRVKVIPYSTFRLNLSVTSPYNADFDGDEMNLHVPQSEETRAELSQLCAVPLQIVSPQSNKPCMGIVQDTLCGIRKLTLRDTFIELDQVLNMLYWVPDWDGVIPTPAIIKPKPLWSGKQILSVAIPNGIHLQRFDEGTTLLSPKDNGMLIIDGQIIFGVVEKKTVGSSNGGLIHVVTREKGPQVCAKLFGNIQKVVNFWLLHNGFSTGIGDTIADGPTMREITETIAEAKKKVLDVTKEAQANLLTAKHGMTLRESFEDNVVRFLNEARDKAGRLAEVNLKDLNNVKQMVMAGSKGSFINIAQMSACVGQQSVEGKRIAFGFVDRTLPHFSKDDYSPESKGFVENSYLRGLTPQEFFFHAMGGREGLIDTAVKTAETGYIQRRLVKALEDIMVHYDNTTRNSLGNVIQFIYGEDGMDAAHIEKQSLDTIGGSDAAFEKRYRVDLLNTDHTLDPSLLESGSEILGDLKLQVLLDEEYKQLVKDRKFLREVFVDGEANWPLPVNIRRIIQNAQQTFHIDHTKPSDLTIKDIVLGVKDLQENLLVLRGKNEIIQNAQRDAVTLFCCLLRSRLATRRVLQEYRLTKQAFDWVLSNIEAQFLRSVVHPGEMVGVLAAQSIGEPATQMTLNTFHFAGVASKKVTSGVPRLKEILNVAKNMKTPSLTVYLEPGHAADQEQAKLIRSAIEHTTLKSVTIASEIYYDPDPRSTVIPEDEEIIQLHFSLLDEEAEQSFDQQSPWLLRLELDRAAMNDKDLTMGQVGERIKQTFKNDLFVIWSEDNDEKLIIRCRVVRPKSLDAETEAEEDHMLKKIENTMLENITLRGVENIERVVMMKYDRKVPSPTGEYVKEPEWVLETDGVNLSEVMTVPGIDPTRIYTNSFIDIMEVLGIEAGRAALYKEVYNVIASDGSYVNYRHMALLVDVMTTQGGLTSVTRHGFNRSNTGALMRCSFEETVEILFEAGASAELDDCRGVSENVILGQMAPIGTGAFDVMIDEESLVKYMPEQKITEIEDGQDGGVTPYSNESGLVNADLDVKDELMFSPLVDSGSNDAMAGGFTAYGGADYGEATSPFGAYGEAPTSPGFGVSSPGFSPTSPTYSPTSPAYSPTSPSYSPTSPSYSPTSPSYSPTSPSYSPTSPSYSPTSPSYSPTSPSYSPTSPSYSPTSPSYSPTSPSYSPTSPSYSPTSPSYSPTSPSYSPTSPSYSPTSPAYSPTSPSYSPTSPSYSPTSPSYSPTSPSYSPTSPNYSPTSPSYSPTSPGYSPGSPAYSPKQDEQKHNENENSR

[2] = molecular target: B4
Rpb2 subunit of pol II = Rpb2 subunit of pol II (S. cerevisiae, UniProt P08518 1-1224)
Rpb2 subunit of pol II, sequence (P08518 whole entry): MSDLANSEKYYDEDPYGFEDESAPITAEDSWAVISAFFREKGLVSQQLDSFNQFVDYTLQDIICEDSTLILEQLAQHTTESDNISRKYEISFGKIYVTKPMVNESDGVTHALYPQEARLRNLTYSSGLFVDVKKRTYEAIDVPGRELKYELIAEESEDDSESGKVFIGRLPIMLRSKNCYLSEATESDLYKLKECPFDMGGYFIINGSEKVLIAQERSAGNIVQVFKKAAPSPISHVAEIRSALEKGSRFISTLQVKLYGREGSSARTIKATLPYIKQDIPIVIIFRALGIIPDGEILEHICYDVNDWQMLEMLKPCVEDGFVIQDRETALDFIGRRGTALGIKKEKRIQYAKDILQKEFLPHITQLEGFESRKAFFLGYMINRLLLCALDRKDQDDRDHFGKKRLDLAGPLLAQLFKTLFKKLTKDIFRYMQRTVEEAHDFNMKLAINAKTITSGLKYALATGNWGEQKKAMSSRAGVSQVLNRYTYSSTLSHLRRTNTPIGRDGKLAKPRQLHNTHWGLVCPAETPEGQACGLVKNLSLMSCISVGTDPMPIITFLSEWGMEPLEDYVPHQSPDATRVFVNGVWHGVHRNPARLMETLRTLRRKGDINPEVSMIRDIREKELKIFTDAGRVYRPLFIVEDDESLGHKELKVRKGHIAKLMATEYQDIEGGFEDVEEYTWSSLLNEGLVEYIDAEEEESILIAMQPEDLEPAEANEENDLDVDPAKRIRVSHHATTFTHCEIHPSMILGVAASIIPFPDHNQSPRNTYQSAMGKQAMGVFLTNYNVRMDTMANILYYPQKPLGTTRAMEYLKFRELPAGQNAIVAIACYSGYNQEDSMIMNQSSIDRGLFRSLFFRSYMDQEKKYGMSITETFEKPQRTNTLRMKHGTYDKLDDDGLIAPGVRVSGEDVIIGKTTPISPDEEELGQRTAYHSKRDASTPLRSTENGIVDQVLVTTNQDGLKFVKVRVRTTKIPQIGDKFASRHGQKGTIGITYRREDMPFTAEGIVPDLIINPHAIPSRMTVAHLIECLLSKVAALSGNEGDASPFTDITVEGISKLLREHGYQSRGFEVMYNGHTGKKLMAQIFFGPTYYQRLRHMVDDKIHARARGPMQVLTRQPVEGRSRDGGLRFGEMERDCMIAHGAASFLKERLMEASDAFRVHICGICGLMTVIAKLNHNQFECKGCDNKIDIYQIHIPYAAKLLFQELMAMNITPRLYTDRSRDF

Binder: B1
binding result (Tfa1 subunit of TFIIE): binds | binding result (Tfg2 subunit of TFIIF): binds

Binder: B2
binding result (Tfa1 subunit of TFIIE): binds

Binder: B3
binding result (Tfg2 subunit of TFIIF): binds

Binder: B4
binding result [1]: binds

Binder: B5
binding result [2]: binds | binding result (Rpb2 subunit of pol II): binds

Binder: B6
binding result (Tfg2 subunit of TFIIF): binds

Binder: B7
binding result (Rpb2 subunit of pol II): binds
